Measurements from patent US20150031755.
pIC50, pKd: −log10 of the molar value.

Key:
[1] = test system: T1, rat amylin (L-peptide) (Rattus norvegicus); experiment: cell_activity; settings: L-RNA, L-dC at 41, 5'-40 kDa PEG; cAMP inhibition, MCF-7 cells; p375 prints human amylin for this value but p377 indicates rat amylin
T1 sequence: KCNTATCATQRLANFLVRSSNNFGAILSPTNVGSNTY

[2] = molecular target: T2, human alpha-CGRP (L-peptide) (Homo sapiens) (UniProt P06881); experiment: SPR; settings: L-RNA; 37 C
T2 sequence: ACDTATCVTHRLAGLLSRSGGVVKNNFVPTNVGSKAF

| Sequence | pIC50 [1] | pKd [2] |
| --- | --- | --- |
| CCGUGCUGUCGGAGACUACUCGUCGAGUAGAAAUAGGUCCCCUCCCACGG [NOX-L41 (226-F2-001-D41-5'-40kDa-PEG)] | 6.55 |  |
| CCGUGCUGUCGGAGACUACUCGUCGAGUAGAAAUAGGUCCCCUCCCACGG [226-F2-001 (L)] |  | 8.58 |
| CGUGCUGUCGGAGACUACUCGUCGAGUAGAAAUAGGUCCCCUCCCACG [212-G1-001 (L)] |  | 8.29 |
